Assay results reported in US20190048074A1.

Tests used:
[1] = target: full-length human APLNR (human) (UniProt P35414); assay: FACS, 4 µg/mL secondary alone, HEK293/CRE-luc/hAPLNR cells
[2] = target: full length cynomolgus APLNR (cynomolgus monkey (Macaca fascicularis)); assay: FACS, 4 µg/mL secondary alone, HEK293/CRE-luc/MfAPLNR cells
[3] = target: full-length human APLNR (human) (UniProt P35414); assay: FACS, secondary alone, HEK293/CRE-luc/hAPLNR cells
[4] = target: full length cynomolgus APLNR (cynomolgus monkey (Macaca fascicularis)); assay: FACS, secondary alone, HEK293/CRE-luc/MfAPLNR cells
[5] = target: full-length human APLNR (human) (UniProt P35414); assay: FACS, 10 µg/mL antibody, HEK293/CRE-luc/hAPLNR cells
[6] = target: full length cynomolgus APLNR (cynomolgus monkey (Macaca fascicularis)); assay: FACS, 10 µg/mL antibody, HEK293/CRE-luc/MfAPLNR cells

Chain of full-length human APLNR (human) (P35414 whole entry): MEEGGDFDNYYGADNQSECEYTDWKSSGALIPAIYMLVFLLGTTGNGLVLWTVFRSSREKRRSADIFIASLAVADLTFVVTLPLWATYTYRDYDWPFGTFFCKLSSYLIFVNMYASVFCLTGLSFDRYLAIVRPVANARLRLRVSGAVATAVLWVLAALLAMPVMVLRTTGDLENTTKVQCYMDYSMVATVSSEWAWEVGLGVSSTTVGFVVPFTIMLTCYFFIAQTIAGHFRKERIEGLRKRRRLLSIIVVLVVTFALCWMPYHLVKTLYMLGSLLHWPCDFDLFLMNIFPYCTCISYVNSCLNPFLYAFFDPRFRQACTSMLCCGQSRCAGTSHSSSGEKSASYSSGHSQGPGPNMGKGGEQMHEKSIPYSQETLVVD
Chain of full length cynomolgus APLNR (cynomolgus monkey (Macaca fascicularis)) (O97666 whole entry): as the sequence (P35414 whole entry) above, with F101S, L167F, E194D, I290V counted along it

Binding Ratio of Geom. Mean to Unstained Cells [1] [fold] | Binding Ratio of Geom. Mean to Unstained Cells [2] [fold] | Binding Ratio of Geom. Mean to Unstained Cells [3] [fold] | Binding Ratio of Geom. Mean to Unstained Cells [4] [fold] | Binding Ratio of Geom. Mean to Unstained Cells [5] [fold] | Binding Ratio of Geom. Mean to Unstained Cells [6] [fold] | Substance
4 | 3 | – | – | – | – | anti-mouse IgG antibody conjugated with Alexa 647
2 | 2 | 2 | 2 | – | – | anti-human IgG antibody conjugated with Alexa 488
– | – | – | – | 2 | 2 | Isotype Control (Tables 4 and 5) (antibody)
– | – | – | – | 7 | 6 | mouse IgG (mIgG) control antibody
